B1: TPR t1 (parent)
chain: GACCAAUCUGCCCUCAGAGCUCGAGAACAUCUUCGGAUGCAGAGGAGGCAGGCUUCGGUGGCGCGAUAGCGCCAACGUCCUCAACCUCCAAUGCAUCCCACCACAUGAUGAUGCCUGAAGAGCCUUGGUUUUUUG

Variants of: B1
Test: polymerase ribozyme fitness, log enrichment relative to wild type (log ratio); higher = more active; in vitro selection for triplet polymerase activity
Procedure, shortened: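 Frozen incubation at −7 °C formed the core of a single, triplicate in vitro selection round applied to PCR-built, transcribed mutant libraries of each subunit of a heterodimeric triplet polymerase ribozyme. Extended constructs were gel-excised, captured with streptavidin beads and amplified by RT-PCR, and input and output libraries were Illumina-sequenced with a filter of ≥10 input reads and ≥1 read per output. Fitness is the logarithm of genotype enrichment relative to wild-type enrichment, with inverse-variance-weighted replicate averaging, and the logarithm is base 2.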

First: A27G C70U U131A
Second: A27G A43U G47A C98U
The “polymerase ribozyme fitness (log ratio)” value of the first is higher: -3.2 for the first, -5.67 for the second.

Compared with A27G G45A G58A G61A A91G, A27G A46G C101A is higher in “polymerase ribozyme fitness (log ratio)” value: -5.18 for the first, -3.22 for the second.

Compared with A27C C72G U81C, A27G G39A C53A C85A C89A G113C is lower in “polymerase ribozyme fitness (log ratio)” value: -4.5 for the first, -5.16 for the second.

First: A27G U32A G36U G44A G63C C76A
Second: A27G G61A
The “polymerase ribozyme fitness (log ratio)” value of the first is lower: -7.06 for the first, -1.92 for the second.

Going from A27G A121G to A26U G61U C79U G93C G120C, the “polymerase ribozyme fitness (log ratio)” value falls from 1.32 to -3.87.

Compared with A26U U96A C97A C124U, A27U A29G C72A is higher in “polymerase ribozyme fitness (log ratio)” value: -5.98 for the first, -2.36 for the second.

Going from A27C C79U A91C G120A to A27C U55C C104U, the “polymerase ribozyme fitness (log ratio)” value rises from -4.64 to -3.54.

Going from A26U G65A G93C C98U C123U to A27C C49G G77U, the “polymerase ribozyme fitness (log ratio)” value rises from -6.78 to -5.08.

Going from A27U A46G C72U G120A to A27C U112C, the “polymerase ribozyme fitness (log ratio)” value rises from -2.7 to -1.2.

Going from A27G C28U U116C U130C to A27G A95U, the “polymerase ribozyme fitness (log ratio)” value rises from -5.27 to -2.82.

Going from A27C A46C C56G to A27C C40G, the “polymerase ribozyme fitness (log ratio)” value falls from -4.61 to -4.98.

Compared with A27C C62U U92G, A27C G60C C73G is higher in “polymerase ribozyme fitness (log ratio)” value: -5.85 for the first, -2.55 for the second.

Going from A27C C72U to A27U A68G, the “polymerase ribozyme fitness (log ratio)” value falls from -2.78 to -5.61.

Going from A27C C56U to A27C G61U G110A C123G, the “polymerase ribozyme fitness (log ratio)” value falls from -2.85 to -3.8.

Going from A27U A46U G61A C85U C94U to A27C C73U, the “polymerase ribozyme fitness (log ratio)” value rises from -3.53 to -3.12.

First: A27G C62A
Second: A27G U38A C73U A83C
The “polymerase ribozyme fitness (log ratio)” value of the first is higher: -2.85 for the first, -3.53 for the second.

Compared with A27C G39A A41G, A27G C56G C89U G110U is higher in “polymerase ribozyme fitness (log ratio)” value: -4.08 for the first, -3.06 for the second.

A27U A74U U87A and A27C G71U are within 0.2 log units of each other in “polymerase ribozyme fitness (log ratio)” value: -2.97 for the first, -3 for the second.

First: A27C C62U
Second: A27C C62G
The “polymerase ribozyme fitness (log ratio)” value of the first is higher: -3.48 for the first, -4.48 for the second.

First: A27U A50G U133A
Second: A27G G47C A100U
The “polymerase ribozyme fitness (log ratio)” value of the first is higher: -2.6 for the first, -4.85 for the second.

First: A27C G45U U106C
Second: A26U U38A
The “polymerase ribozyme fitness (log ratio)” value of the first is lower: -4.75 for the first, -4.53 for the second.

Compared with A26U G61A U116G A121G, A27U A29G G122A is lower in “polymerase ribozyme fitness (log ratio)” value: -2.88 for the first, -3.63 for the second.

First: A26U U78A G110U G120C U133G
Second: A26U G60U
The “polymerase ribozyme fitness (log ratio)” value of the first is lower: -7.89 for the first, -3.37 for the second.

First: A26U G60A
Second: A27C A29U C56G
The “polymerase ribozyme fitness (log ratio)” value of the first is higher: -3.74 for the first, -4.23 for the second.

First: A27G A103U U112A U130C
Second: A27U A41U
The “polymerase ribozyme fitness (log ratio)” value of the first is lower: -5.43 for the first, -4.42 for the second.

Going from A27C G45C to A27C U78C, the “polymerase ribozyme fitness (log ratio)” value rises from -4.29 to -3.31.

Going from A27C C72U C124U to A27G C28U G47U G58C, the “polymerase ribozyme fitness (log ratio)” value falls from -0.653 to -3.68.

Compared with A27G A41G G71A, A27C C94A is lower in “polymerase ribozyme fitness (log ratio)” value: -2.99 for the first, -3.32 for the second.

Compared with A27C C94G, A27C A118U is higher in “polymerase ribozyme fitness (log ratio)” value: -3.57 for the first, -2.67 for the second.

Going from A27C C82U U96G U125A U129G to A27G G45U G71U U96G G120U, the “polymerase ribozyme fitness (log ratio)” value rises from -5.35 to -4.73.

Compared with A26U G61U U87G C98G A121U, A27C G47U U106A C124A U130A U133A is higher in “polymerase ribozyme fitness (log ratio)” value: -6.57 for the first, -3.86 for the second.

Compared with A27C A90U, A27G A105U is higher in “polymerase ribozyme fitness (log ratio)” value: -5.3 for the first, -4.91 for the second.

First: A27G A100U
Second: A27G C64A C115G
The “polymerase ribozyme fitness (log ratio)” value of the first is higher: -3.23 for the first, -7.5 for the second.

First: A26U G48C
Second: A27U A37C
The “polymerase ribozyme fitness (log ratio)” value of the first is lower: -3.53 for the first, -2.87 for the second.

First: A27C G42C G71U G120C U126A U130G
Second: A27C G42U C104A C114A G128A
The “polymerase ribozyme fitness (log ratio)” value of the first is higher: -6.82 for the first, -7.58 for the second.

First: A27G A74C C115G
Second: A27C U55C C70U U129G
The “polymerase ribozyme fitness (log ratio)” value of the first is lower: -6.8 for the first, -4.99 for the second.

Going from A27G C98U to A27C G48U, the “polymerase ribozyme fitness (log ratio)” value falls from -3.4 to -4.11.

Compared with A26U G71A C94U C123G U132C, A27G A43G G63C is lower in “polymerase ribozyme fitness (log ratio)” value: -2.78 for the first, -4.38 for the second.

First: A26U G71A C72U A90C U106A
Second: A27G G113U
The “polymerase ribozyme fitness (log ratio)” value of the first is lower: -5.08 for the first, -3.25 for the second.

Compared with A27G A29U C73U U125A, A27C C124U is higher in “polymerase ribozyme fitness (log ratio)” value: -3.73 for the first, -1.18 for the second.

First: A27C A111U A118U G120A
Second: A26U U78A
The “polymerase ribozyme fitness (log ratio)” value of the first is lower: -5.36 for the first, -3.18 for the second.

Compared with A27G A90U U116C, A27C C70U is higher in “polymerase ribozyme fitness (log ratio)” value: -6.7 for the first, -3.87 for the second.

— the RNAGym collection of RNA variant scans (doi:10.1073/pnas.2313332121)
